Results taken from publication PMC9676401.

Assays:
[1] = target: GFP-tagged JNK1 (JNK1β) in pEGFP-C2; assay: co-immunoprecipitation (anti-FLAG IP, anti-GFP immunoblot, densitometry); conditions: COS-7 cells, transient transfection 48 h; parent: est. 1.0; read off a plot
[2] = target: Full-length FLAG-tagged MKP7 C244S (catalytically inactive, substrate-trapping) (human) (UniProt Q9BY84); assay: co-IP; COS-7 cells cotransfected for 48 h in 10% FBS DMEM with FLAG-MKP7 (WT or mutants) and p38α MAPK-HA, JNK1β-GFP or ERK2-HA; Pierce IP lysis buffer; immunoprecipitation with anti-FLAG M2 overnight and protein-G beads; immunoblot with anti-HA or anti-GFP; quantitation as MAPK/FLAG-MKP7
Sequence of UniProt Q9BY84 (Q9BY84 whole entry C244S): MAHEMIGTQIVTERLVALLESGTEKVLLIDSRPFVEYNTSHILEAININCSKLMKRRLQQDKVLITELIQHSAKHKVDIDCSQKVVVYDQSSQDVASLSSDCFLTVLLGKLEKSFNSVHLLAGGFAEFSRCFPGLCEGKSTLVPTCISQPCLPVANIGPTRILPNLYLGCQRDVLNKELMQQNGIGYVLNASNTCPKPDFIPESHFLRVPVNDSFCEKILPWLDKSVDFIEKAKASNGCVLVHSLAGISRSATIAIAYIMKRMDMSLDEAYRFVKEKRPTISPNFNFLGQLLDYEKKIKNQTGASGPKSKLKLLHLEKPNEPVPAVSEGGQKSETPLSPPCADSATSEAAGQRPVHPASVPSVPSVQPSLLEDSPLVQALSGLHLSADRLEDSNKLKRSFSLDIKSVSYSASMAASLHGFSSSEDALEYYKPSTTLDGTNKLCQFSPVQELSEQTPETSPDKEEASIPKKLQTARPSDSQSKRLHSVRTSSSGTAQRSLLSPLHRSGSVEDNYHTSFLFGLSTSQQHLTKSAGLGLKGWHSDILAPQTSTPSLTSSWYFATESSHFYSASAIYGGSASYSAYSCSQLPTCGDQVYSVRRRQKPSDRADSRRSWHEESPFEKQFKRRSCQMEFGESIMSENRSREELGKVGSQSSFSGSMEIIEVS

Sequence of GFP-tagged JNK1 (JNK1β) in pEGFP-C2 (P45983 whole entry): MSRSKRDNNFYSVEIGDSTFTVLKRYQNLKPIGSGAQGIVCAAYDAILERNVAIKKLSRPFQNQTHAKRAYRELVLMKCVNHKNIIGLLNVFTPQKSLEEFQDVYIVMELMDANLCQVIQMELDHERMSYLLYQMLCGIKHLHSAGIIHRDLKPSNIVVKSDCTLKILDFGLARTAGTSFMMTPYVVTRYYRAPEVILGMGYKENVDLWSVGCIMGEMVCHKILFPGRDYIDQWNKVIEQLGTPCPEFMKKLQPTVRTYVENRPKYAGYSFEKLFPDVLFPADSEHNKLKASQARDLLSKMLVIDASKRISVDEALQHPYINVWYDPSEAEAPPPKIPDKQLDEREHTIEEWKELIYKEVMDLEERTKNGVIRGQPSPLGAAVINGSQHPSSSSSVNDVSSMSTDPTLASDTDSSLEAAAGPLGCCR

| ratio to parent [1] | fold bound compared with WT [2] [fold] | Substance |
| --- | --- | --- |
| 0 |  | Full-length FLAG-tagged MKP7 WT (1-665 aa) (from UniProt Q9BY84) Y271S |
| 0 |  | Full-length FLAG-tagged MKP7 WT (1-665 aa) (from UniProt Q9BY84) Y271S; C244S |
|  | 3 | GFP-tagged JNK1 (JNK1β) in pEGFP-C2 (enzyme) |
